Experimental data: patent US20260317437 (published 2026)
Numbering of substitutions follows the chain as printed. In names and notes the source's numbering stands. Each block holds one binder with its values, some of them ahead of it.

Target: GCGR extracellular domain (human, UniProt P47871)
Test: SPR

GCGR extracellular domain, sequence (P47871 26-477): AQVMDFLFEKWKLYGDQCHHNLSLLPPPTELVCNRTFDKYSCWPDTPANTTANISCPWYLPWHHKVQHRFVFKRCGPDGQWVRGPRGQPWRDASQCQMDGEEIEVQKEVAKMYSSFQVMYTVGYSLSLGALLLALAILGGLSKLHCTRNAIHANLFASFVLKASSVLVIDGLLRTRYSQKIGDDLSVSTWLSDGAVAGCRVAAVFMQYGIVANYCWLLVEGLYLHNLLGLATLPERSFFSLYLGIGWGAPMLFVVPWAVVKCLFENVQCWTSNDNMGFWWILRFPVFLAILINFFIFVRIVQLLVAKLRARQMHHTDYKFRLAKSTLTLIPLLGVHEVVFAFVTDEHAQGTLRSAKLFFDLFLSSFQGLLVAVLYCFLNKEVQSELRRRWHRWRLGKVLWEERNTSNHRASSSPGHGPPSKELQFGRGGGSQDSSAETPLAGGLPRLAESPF

B1: VH Y30Q (antibody, V domains shown)
VH: EVQLVESGGGLVQPGGSLRLSCAASGFNIQYNYIHWVRQAPGKGLEWVAEFSPYSGSTYYADSVKGRFTISADTSKNTAYLQMNSLRAEDTAVYYCARSAAIVDWYDYFKGFDYWGQGTLVTVSS
VL: DIQMTQSPSSLSASVGDRVTITCRASQSVSSAVAWYQQKPGKAPKLLIYSASSLYSGVPSRFSGSRSGTDFTLTISSLQPEDFATYYCQQYGSYLYTFGQGTKVEIK
Kd: 23.4 nM

B2: VL S93F (antibody, V domains shown)
VH: B1 VH with Q30Y
VL: B1 VL with S93F
Kd: 5.59 nM

B3: VH Y30L (antibody, V domains shown)
VH: B1 VH with Q30L
VL: B1 VL
Kd: 4.63 nM

B4: VH Y30V (antibody, V domains shown)
VH: B1 VH with Q30V
VL: B1 VL
Kd: 6.68 nM

B7: VL Y91L (antibody, V domains shown)
VH: B1 VH with Q30Y
VL: B1 VL with Y91L
Kd: 4.2 nM

B8: VH Y30S (antibody, V domains shown)
VH: B1 VH with Q30S
VL: B1 VL
Kd: 261 nM

B14: VL Y94V (antibody, V domains shown)
VH: B1 VH with Q30Y
VL: B1 VL with Y94V
Kd: 2.46 nM

B17: VL Y91W (antibody, V domains shown)
VH: B1 VH with Q30Y
VL: B1 VL with Y91W
Kd: 3.02 nM

B20: VH Y31T (antibody, V domains shown)
VH: B1 VH with Q30Y, Y31T
VL: B1 VL
Kd: 194 nM

B21: VH Y30D (antibody, V domains shown)
VH: B1 VH with Q30D
VL: B1 VL
Kd: 20.2 nM

B23: VH Y30T (antibody, V domains shown)
VH: B1 VH with Q30T
VL: B1 VL
Kd: 24.8 nM

B27: VL Y91H (antibody, V domains shown)
VH: B1 VH with Q30Y
VL: B1 VL with Y91H
Kd: 2.82 nM

B29: VH Y30K (antibody, V domains shown)
VH: B1 VH with Q30K
VL: B1 VL
Kd: 363 nM

B30: VH V99K (antibody, V domains shown)
VH: B1 VH with Q30Y, V103K
VL: B1 VL
Kd: 17.3 nM

B34: VH Y30R (antibody, V domains shown)
VH: B1 VH with Q30R
VL: B1 VL
Kd: 110 nM

B35: VL S93K (antibody, V domains shown)
VH: B1 VH with Q30Y
VL: B1 VL with S93K
Kd: 2.91 nM

B36: VH Y31F (antibody, V domains shown)
VH: B1 VH with Q30Y, Y31F
VL: B1 VL
Kd: 6.94 nM

B37: VH Y30W (antibody, V domains shown)
VH: B1 VH with Q30W
VL: B1 VL
Kd: 6.44 nM

B38: VH Y30I (antibody, V domains shown)
VH: B1 VH with Q30I
VL: B1 VL
Kd: 5.54 nM

B39: VL Y94W (antibody, V domains shown)
VH: B1 VH with Q30Y
VL: B1 VL with Y94W
Kd: 2.55 nM

B40: VH Y31V (antibody, V domains shown)
VH: B1 VH with Q30Y, Y31V
VL: B1 VL
Kd: 406 nM

B42: VL Y94H (antibody, V domains shown)
VH: B1 VH with Q30Y
VL: B1 VL with Y94H
Kd: 3.02 nM

B43: VH Y100bA (antibody, V domains shown)
VH: B1 VH with Q30Y, Y106A
VL: B1 VL
Kd: 3.54 nM

B44: VL Y91E (antibody, V domains shown)
VH: B1 VH with Q30Y
VL: B1 VL with Y91E
Kd: 3.42 nM

B47: VH Y30A (antibody, V domains shown)
VH: B1 VH with Q30A
VL: B1 VL
Kd: 21.3 nM

B49: VH Y31L (antibody, V domains shown)
VH: B1 VH with Q30Y, Y31L
VL: B1 VL
Kd: 2640 nM

Second part, the binder after the results:

Kd: 0.962 nM
B5: VL S93N (antibody, V domains shown)
VH: B1 VH with Q30Y
VL: B1 VL with S93N

Kd: 2.23 nM
B6: VL Y94F (antibody, V domains shown)
VH: B1 VH with Q30Y
VL: B1 VL with Y94F

Kd: 2.08 nM
B9: VL Y91K (antibody, V domains shown)
VH: B1 VH with Q30Y
VL: B1 VL with Y91K

Kd: 2.18 nM
B10: VL S93Q (antibody, V domains shown)
VH: B1 VH with Q30Y
VL: B1 VL with S93Q

Kd: 2.36 nM
B11: VL Y91Q (antibody, V domains shown)
VH: B1 VH with Q30Y
VL: B1 VL with Y91Q

Kd: 2.05 nM
B12: VL Y94L (antibody, V domains shown)
VH: B1 VH with Q30Y
VL: B1 VL with Y94L

Kd: 1.85 nM
B13: VL Y94E (antibody, V domains shown)
VH: B1 VH with Q30Y
VL: B1 VL with Y94E

Kd: 1.23 nM
B15: VH Y30F (antibody, V domains shown)
VH: B1 VH with Q30F
VL: B1 VL

Kd: 1.41 nM
B16: VL Y94R (antibody, V domains shown)
VH: B1 VH with Q30Y
VL: B1 VL with Y94R

Kd: 1.27 nM
B18: VL S93T (antibody, V domains shown)
VH: B1 VH with Q30Y
VL: B1 VL with S93T

Kd: 2.08 nM
B19: VL Y94S (antibody, V domains shown)
VH: B1 VH with Q30Y
VL: B1 VL with Y94S

Kd: 2.31 nM
B22: VL Y91S (antibody, V domains shown)
VH: B1 VH with Q30Y
VL: B1 VL with Y91S

Kd: 1.74 nM
B24: VL S93V (antibody, V domains shown)
VH: B1 VH with Q30Y
VL: B1 VL with S93V

Kd: 1.69 nM
B25: VL Y91F (antibody, V domains shown)
VH: B1 VH with Q30Y
VL: B1 VL with Y91F

Kd: 0.766 nM
B26: VL S93R (antibody, V domains shown)
VH: B1 VH with Q30Y
VL: B1 VL with S93R

Kd: 2.42 nM
B28: VL Y91T (antibody, V domains shown)
VH: B1 VH with Q30Y
VL: B1 VL with Y91T

Kd: 2.38 nM
B31: VL S93H (antibody, V domains shown)
VH: B1 VH with Q30Y
VL: B1 VL with S93H

Kd: 2.28 nM
B32: VL S93I (antibody, V domains shown)
VH: B1 VH with Q30Y
VL: B1 VL with S93I

Kd: 0.968 nM
B33: VL S93E (antibody, V domains shown)
VH: B1 VH with Q30Y
VL: B1 VL with S93E

Kd: 2.08 nM
B41: VL Y94Q (antibody, V domains shown)
VH: B1 VH with Q30Y
VL: B1 VL with Y94Q

Kd: 1.08 nM
B45: VH Y100bV (antibody, V domains shown)
VH: B1 VH with Q30Y, Y106V
VL: B1 VL

Kd: 1.92 nM
B46: VL Y94D (antibody, V domains shown)
VH: B1 VH with Q30Y
VL: B1 VL with Y94D

Kd: 1.3 nM
B48: VL S93D (antibody, V domains shown)
VH: B1 VH with Q30Y
VL: B1 VL with S93D
